Where a chain is given by its changes, count along the chain named.
B1: AbT (antibody, human IgG1, V domains shown)
VH: QVQLQESGPGLVKPSETLSLTCAVSGYSISSGYYWGWIRQPPGKGLEWIGSISHTGNTYYNPPLKSRVTISVDTSKNQFSLKLSSVTAADTAVYYCARGGGISRPEYWGQGTLVTVSS
VL: SSELTQDPAVSVALGQTVRITCQGDSLRTYYASWYQQKPGQAPVLVIYGKHKRPSGIPDRFSGSSSGNTASLTITGAQAEDEADYYCVARSNKGNPHVLFGGGTQLTVL
notes: CDR3 graft, residue limits derived as for m29; also called VHP/VL9; VHPTM/VL9
B2: AbU (antibody, human IgG1, V domains shown)
VH: B1 VH
VL: B1 VL with V88T, A89T
notes: CDR3 graft, residue limits derived as for m29; also called VHP/VL25; VHPTM/VL25

Tests used:
[1] = biological target: T1, rat IL-21R expressed on cells (rat); assay: cell ELISA, CHO cells
T1 construct: whole, on cells

[2] = biological target: T2, cynomolgus monkey IL-21R expressed on cells (cynomolgus monkey, UniProt G7Q0S8 41-559); assay: cell ELISA, CHO cells
T2 construct: whole, on cells

[3] = biological target: T3, human IL-21R expressed on cells (human, UniProt Q9HBE5 20-538); assay: cell-based or functional assay
[4] = biological target: T4, murine IL-21R expressed on cells (murine, UniProt Q9JHX3 20-529); assay: cell-based or functional assay
[5] = biological target: T3, human IL-21R expressed on cells; assay: cell-based or functional assay; remark: listed apart in the source
[6] = biological target: T4, murine IL-21R expressed on cells; assay: cell-based or functional assay; remark: listed apart in the source
[7] = biological target: T5, human IL-21R extracellular domain His-Flag fusion protein (human, UniProt Q9HBE5 20-232); assay: SPR, Ab captured on anti-human IgG, replicate experiment
T5 construct: Biotinylated in the HTRF screen; also called hIL-21R-H/F; human IL-21R-H/F
Procedure: The kinetics of binding of anti-IL-21R antibodies to human and murine IL-21R-H/F was tested on a BIACORE™ surface plasmon resonance instrument. Anti-human IgG antibodies (Invitrogen Corporation) were immobilized onto a research-grade carboxy-methyl-dextran chip (CM5) using standard amine coupling. The surface was activated with EDC/NHS for 7 min at a flow of 20 μl/min. The first flow cell was used as a reference surface to correct for bulk refractive index, matrix effects, and nonspecific binding. The anti-human-Fc antibody was diluted to 20 μg/ml in 10 mM sodium acetate buffer (pH 5.0), and 2950-3405 resonance units (RU) were captured on each of the four flow cells. Remaining activated groups were blocked with 1.0 M ethanolamine-HCl (pH 8.5).
Anti-IL-21R antibodies were diluted to 0.1-0.2 μg/ml in HBS/EP buffer supplemented with 0.2% bovine serum albumin and loaded onto the BIACORE™ chip. Following a brief washing period, solutions of 0-100 nM human IL-21R-H/F or 10-500 nM murine IL-21R-H/F were injected over the chip at a flow rate of 50 μl/min. The association phase was run for 3 min for human and murine IL-21R kinetics, and the dissociation phase was monitored for 15 min for hIL-21R and for 5 min for mIL-21R, followed by two 10 μl injections and one 30 μl injection of glycine (pH 1.5), to regenerate a fully active capturing surface. All binding experiments were done at 25° C. in HBS/EP buffer, and the sample rack was kept at 15° C. Blank and buffer effects were subtracted for each sensorgram using double referencing.

human IL-2Rβ = biological target: T6, human IL-2Rβ (human, UniProt P14784 27-239); assay: BIACORE: antibody captured on anti-human IgG; 50 nM analyte injected
T6 sequence (looked up): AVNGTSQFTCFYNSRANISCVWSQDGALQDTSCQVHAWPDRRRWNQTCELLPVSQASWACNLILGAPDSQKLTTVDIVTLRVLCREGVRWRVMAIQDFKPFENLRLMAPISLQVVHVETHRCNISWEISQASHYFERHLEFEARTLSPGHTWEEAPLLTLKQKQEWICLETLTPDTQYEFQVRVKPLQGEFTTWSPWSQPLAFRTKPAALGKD
Procedure: (§1) The specificity of binding of a subset of transiently expressed anti-IL-21R binding proteins (here antibodies) was tested on a BIACORE™ 2000 surface plasmon resonance instrument. Anti-human-IgG, anti-murine immunoglobulin antibodies, and murine IL-21R-H/F were immobilized onto a research-grade carboxymethyl-dextran chip (CM5) using standard amine coupling. The sensor chip surface was activated with EDC/NHS for 7 min at a flow rate of 20 μl/min. The first flow cell was used as reference surface to correct for bulk refractive index, matrix effects, and nonspecific binding. […] Remaining activated groups were blocked with 1.0 M ethanolamine (pH 8.0). The molecular weights of the anti-human IgG and the anti-murine IgG were both 150 kD, and the molecular weight of the IL-21R monomer was 27 kD.
(§2) Conditioned media containing anti-IL-21R antibodies and antibody controls (murine anti-human IL-2Rβ and murine anti-human IL-4R(R&D Systems, Minneapolis, Minn.); human anti-human IL-13 (Wyeth, Cambridge, Mass.)) were diluted in HBS/EP buffer supplemented with 0.2% bovine serum and injected onto all four flow cells of the BIACORE™ chip, capturing 500-700 (RU) of antibody on the species-appropriate capture antibody. Following a 5 sec washing period, 50 nM solutions of a positive control protein (murine IL-21R-H/F), two human proteins related to IL-21R (human IL-2Rβ and human sIL-4R(R&D Systems)), or an unrelated His/FLAG-tagged protein (human IL-13-H/F) were injected over the captured antibodies on the chip. The association and dissociation phases were monitored for 120 and 180 sec, respectively, followed by two 5 μl injections of glycine (pH 1.5) to regenerate a fully active capturing surface. All binding experiments were done at 25° C. in HBS/EP buffer. Blank and buffer effects were subtracted for each sensorgram using double referencing.

human soluble IL-4R = biological target: T7, human soluble IL-4R (human, UniProt P24394 26-232, limits assumed); assay: as above
T7 construct: also called human sIL-4R
Procedure: as §1, §2

human IL-13-His/FLAG = biological target: T8, human IL-13-His/FLAG (human, UniProt P35225 35-146, limits assumed); assay: as above
T8 construct: Unrelated His/FLAG-tagged control; also called human IL-13-H/F
Procedure: as §1, §2

T5 sequence (Q9HBE5 20-232): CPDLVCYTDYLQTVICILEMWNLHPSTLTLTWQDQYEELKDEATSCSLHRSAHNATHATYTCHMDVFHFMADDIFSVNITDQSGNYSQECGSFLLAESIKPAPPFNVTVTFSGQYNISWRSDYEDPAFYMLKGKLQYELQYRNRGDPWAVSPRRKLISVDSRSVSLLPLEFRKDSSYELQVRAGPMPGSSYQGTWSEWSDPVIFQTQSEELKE
T4 sequence (Q9JHX3 20-529 limits assumed): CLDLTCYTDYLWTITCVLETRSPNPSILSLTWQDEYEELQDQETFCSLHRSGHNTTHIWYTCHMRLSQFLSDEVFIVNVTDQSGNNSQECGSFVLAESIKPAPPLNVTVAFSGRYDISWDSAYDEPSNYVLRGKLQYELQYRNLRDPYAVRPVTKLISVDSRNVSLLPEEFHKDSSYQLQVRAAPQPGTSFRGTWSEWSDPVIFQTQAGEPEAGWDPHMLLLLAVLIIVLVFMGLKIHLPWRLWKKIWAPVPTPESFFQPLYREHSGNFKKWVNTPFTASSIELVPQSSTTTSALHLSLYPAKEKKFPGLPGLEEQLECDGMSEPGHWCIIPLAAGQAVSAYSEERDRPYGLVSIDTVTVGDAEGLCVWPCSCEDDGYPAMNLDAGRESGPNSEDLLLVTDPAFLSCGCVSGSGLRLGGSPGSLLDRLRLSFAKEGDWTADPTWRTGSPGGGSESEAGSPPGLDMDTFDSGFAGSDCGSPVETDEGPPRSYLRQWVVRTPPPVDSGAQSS
T3 sequence (Q9HBE5 20-538 limits assumed): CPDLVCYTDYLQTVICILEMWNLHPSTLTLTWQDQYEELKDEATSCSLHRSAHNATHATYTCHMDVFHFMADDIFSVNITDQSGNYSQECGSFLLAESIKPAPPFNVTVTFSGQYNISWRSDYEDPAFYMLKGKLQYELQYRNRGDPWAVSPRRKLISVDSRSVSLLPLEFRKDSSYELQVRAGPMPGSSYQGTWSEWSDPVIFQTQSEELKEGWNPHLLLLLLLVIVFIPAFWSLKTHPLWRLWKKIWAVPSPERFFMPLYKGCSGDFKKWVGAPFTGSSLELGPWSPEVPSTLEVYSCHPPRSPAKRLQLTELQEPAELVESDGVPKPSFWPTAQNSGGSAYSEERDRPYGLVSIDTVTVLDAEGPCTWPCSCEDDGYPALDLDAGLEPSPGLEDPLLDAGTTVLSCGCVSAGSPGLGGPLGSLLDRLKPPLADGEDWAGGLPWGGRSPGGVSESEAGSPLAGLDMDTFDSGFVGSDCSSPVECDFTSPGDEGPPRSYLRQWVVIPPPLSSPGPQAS
T8 sequence (P35225 35-146 limits assumed): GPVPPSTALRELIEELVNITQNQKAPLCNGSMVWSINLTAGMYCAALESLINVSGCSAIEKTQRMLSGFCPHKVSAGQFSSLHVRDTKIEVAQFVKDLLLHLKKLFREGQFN

| Binder | A450 (13 nM Ab) [1] | A450 (13 nM Ab) [2] | Human IL-21R-BaF3 Proliferation IC50 [3] | Human IL-21R-TF1 Proliferation IC50 [3] | Murine IL-21R-BaF3 Proliferation IC50 [4] | Neutralization of B cell proliferation IC50 [5] | Neutralization of murine primary T cell Proliferation IC50 [6] | Kd [7] | koff [7] | kon [7] | binding result (human IL-2Rβ) | binding result (human soluble IL-4R) | binding result (human IL-13-His/FLAG) |
| --- | --- | --- | --- | --- | --- | --- | --- | --- | --- | --- | --- | --- | --- |
| B1 | 0.994 A450 | 1.22 A450 | 0.67 nM | 3.26 nM | 0.093 nM | 0.14 nM | 0.61 nM | 0.272 nM | 7.42e-05 s⁻¹ | 273000 M⁻¹ s⁻¹ | no binding (tested: 50 nM) | no binding (tested: 50 nM) | no binding (tested: 50 nM) |
| B2 | 0.927 A450 | 1.31 A450 | 0.73 nM | 3.13 nM | 0.184 nM | 0.13 nM | 1.79 nM | 0.329 nM | 7.83e-05 s⁻¹ | 238000 M⁻¹ s⁻¹ | no binding (tested: 50 nM) | no binding (tested: 50 nM) | no binding (tested: 50 nM) |

— patent US20120276102A1 (Pfizer, published 2012)
